Results on one molecule are retold here after PMC4663108 (Journal of molecular biology, 2015).

This assay concerns the target DnaK D45C-biotin (E. coli, UniProt P0A6Y8 1-638, D45C, biotin (labeled with a 20-fold excess of Maleimide-PEG11-Biotin)). The assay can be described thus: pull-down.

B1: CbpA (natural protein, E. coli, UniProt P36659 1-306, looked up)
chain: MELKDYYAIMGVKPTDDLKTIKTAYRRLARKYHPDVSKEPDAEARFKEVAEAWEVLSDEQRRAEYDQMWQHRNDPQFNRQFHHGDGQSFNAEDFDDIFSSIFGQHARQSRQRPATRGHDIEIEVAVFLEETLTEHKRTISYNLPVYNAFGMIEQEIPKTLNVKIPAGVGNGQRIRLKGQGTPGENGGPNGDLWLVIHIAPHPLFDIVGQDLEIVVPVSPWEAALGAKVTVPTLKESILLTIPPGSQAGQRLRVKGKGLVSKKQTGDLYAVLKIVMPPKPDENTAALWQQLADAQSSFDPRKDWGKA
As for B1, the binding result is given as “binds”.
